Biological target: human IGF-IR expressed on recombinant NIH-3T3 cells (human) (UniProt P08069)
Assay: cell-based or functional assay

Chain of UniProt P08069 (P08069 31-1367): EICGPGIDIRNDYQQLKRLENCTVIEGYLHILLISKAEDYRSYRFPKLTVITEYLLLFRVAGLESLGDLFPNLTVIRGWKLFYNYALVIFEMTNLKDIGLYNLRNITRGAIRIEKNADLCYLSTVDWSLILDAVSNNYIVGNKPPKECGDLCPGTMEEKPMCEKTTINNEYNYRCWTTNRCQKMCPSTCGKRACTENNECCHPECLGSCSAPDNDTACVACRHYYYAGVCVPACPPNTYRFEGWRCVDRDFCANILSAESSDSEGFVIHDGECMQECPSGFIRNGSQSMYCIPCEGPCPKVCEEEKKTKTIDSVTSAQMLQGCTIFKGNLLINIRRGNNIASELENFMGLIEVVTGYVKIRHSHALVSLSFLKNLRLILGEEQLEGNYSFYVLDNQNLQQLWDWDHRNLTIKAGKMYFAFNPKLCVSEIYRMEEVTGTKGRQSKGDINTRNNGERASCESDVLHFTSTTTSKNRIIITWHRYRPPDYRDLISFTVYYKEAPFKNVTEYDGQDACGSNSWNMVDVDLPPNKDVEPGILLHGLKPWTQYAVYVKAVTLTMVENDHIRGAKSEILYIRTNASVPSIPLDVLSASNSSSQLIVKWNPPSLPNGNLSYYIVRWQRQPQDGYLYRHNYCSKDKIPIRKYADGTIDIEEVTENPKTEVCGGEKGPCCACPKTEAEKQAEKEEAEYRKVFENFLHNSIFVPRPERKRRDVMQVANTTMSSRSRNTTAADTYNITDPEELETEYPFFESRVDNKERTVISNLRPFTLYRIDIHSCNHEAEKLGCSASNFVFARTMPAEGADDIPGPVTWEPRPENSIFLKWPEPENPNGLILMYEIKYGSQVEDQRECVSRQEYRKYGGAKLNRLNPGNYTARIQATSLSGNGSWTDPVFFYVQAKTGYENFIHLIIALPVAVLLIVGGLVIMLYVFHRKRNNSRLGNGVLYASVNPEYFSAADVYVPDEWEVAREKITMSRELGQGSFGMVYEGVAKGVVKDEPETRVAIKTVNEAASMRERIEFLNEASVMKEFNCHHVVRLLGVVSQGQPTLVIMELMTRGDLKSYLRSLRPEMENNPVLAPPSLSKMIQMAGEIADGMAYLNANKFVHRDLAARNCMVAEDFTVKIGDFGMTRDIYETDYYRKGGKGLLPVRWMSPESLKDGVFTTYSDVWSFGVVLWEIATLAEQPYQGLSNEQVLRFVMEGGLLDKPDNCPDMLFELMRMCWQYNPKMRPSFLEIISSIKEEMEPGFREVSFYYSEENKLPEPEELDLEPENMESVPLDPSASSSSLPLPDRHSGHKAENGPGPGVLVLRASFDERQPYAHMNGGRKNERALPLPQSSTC

wt-rhIGF - trypsin site - Strep-Tag (ligand)
Activation of IGF-1R (phospho-IGF-IR ELISA), EC50 [nM]: 1.7 nM

rhIGF-I (K27R, K65R) (from UniProt P05019 49-118) (ligand)
Activation of IGF-1R (phospho-IGF-IR ELISA), EC50 [nM]: 1.2 nM

wt-rhIGF-I - YRHAK MCa PEG20000 (from UniProt P05019 49-118) (ligand)
Activation of IGF-1R (phospho-IGF-IR ELISA), EC50 [nM]: 18.4 nM

— patent publication US20170267736A1
